According to the DeepSol protein solubility set:

Test: soluble on expression in E. coli; label from the status in PepcDB or PDB records
For “MGSDKIHHHHHHMLSNLWKRQAPQMVGIDIGSHEVKAILLGKTADGYKILSHAAVPVKKGAINDHDIRDADAVVECLRQIKRILPKSVKYAAVAVSGSAVMTKVIYMDASLSEEEMEAQIEIEADNLIPYSLDEVSIDFETLNVNSTDPSKVDVLLSACRTDNIDTRVDALDEVELETKVVDVEGYALGRAVELVLGQLPEGARQKAVAMVDIGANMTTFCVVESGETTFIREQAFGGELFTQSILSFYGMSYEQAEKAKIEGDLPRNYMFEVLSPFQTQLLQQIKRTLQIYCTSSGKDKVDYLVLCGGTSKLEGMANLLTNELGVHTIIADPFQGCLHADESVKNILQPSISKYMVACGLALRSYGQWRT”, the “soluble on expression in E. coli” value was “not soluble”.
In the case of “MHKKLNPKSMKRENKKMVLRYLIESGPHSRVEIARKTGLAQSAIWRIIEELVNEGLVEEKGTATGRRRKAVTYGPTRSFITSIIYNVEVLETLVAVGFLDGAWRIIERFSTPKDFDEFKQRVTSSYENILKSHVLNKNISKVVFSLPGIVNTESKFLIHAPNLGWRNIDFRREFGNLDLEVLVENDSNLSLLAEEFFSQDVKESDVAFFLYFGEGIGGAISVNGKIVRGENFAAGEIGHVVLDVKNGKEVEEFLSISKLVERMEKFVELQGESLDEKFRYIKRLWFSGEKNVKETMEEFLQHVAVVLKNIIYFLNPGVIVLGGVVNDLWDTFGSFIKRELEKITDREIANVLIRDTIFKEISPSLVGGNVLAIEEFLRQIT”, the “soluble on expression in E. coli” value is reported as “not soluble”.
For “MAPSQPTQNAQTVSSVMTETPTYTSSSRSVESTAGTIAASEEATMTLLENSSGDPGSDSGGARYSLNSLKVSEQAAANAVLKAVLNDVSYQEFADSSYLEITGTPSADGTWGISFGGPSESASVEFSDGSISFSPVDMTVPATRLPQMGAFYETLTEEQLGMLETGLAVSTVDSSQQEMLLDLVSNSIGLADTETTATAISKIRATLSETYLFGTPDGLTLALSGPHVDFEVSHQGSTAKITYRDPSTDTLTAEDRVDTASVAAAPPEVVLEHHHHHH”, the “soluble on expression in E. coli” value was “soluble”.
With “MSLGIKMRSVVVKEPGQLNIESRPVPVPGAHEVRVKIAFAGICGSDVHIYHGHNPFAKYPRVIGHEFYGIIDAVGEQVSPARIGERVAVDPVVSCGHCYPCSVGRPNVCTQLQVIGVHRDGGFSDYACVPAKNAWRIPEAISDRQATMVEPFTIAANITAQLQPTAQDIALVYGAGPMGLTIIQALKGVYGVKQVIVVDRIAERLQMARENGADLTLDNTDQPLAEQLAQRQLAPTLVIDAACHPAILQEAILLASPAARIGILGFSGEASTLTQQSITSKEISIFSSRLNSGRFPLVIDWMEKGLIRPEALITHCMPLEQVKEAMEIFANDRKTCCKVLLQLGEGHHHHHH” the “soluble on expression in E. coli” value was “soluble”.
With “MAHHHHHHMPSGDAMIPRVCRTFSDAFASDEATAKEQGKKYWISRVLGSGATGTVLCAKRRSDGQSFAVKVVEMEGMSEADKNRAQAEVQCLLNCDFFSILKCHEDFAKKDPADEENVLMVALVLDYANAGDLRQEIKNRAKAARAFREHEAGLLFIQVLLAIHHVHSRHMIHRDIKTANILLCSNGLVKLGDFGFSKMYSATVSGDVGKTFCGTPYYVAPEIWRRKPYSKKADIFSLGVLLYELLTLKRPFDGENMQEVMQKALAGRYDPLPPTISPEMTEVVTSLLCGDPHARPSSSKLLNMPICKLFVSGLLEIVQTQPSFAGPLRDTISTHIQSVKQSLKEERRVTVRQMEESQSAAAASTTILEGATPMGSVGDLTLYEGIVKKQSGDLAWKRRYLCIRGALEEGERLDVGRMPKFKSLDLVLAVSKETMRQQCITTPFSELEDVFPVASKYTGSNAQHVFAVAFKTGRRLLFQARGDPERDAWMQKIQQTLGIDEAD” the “soluble on expression in E. coli” value was “soluble”.
In the case of “MRKEVEQLALMGAMPDEADERITAALVDEYADLLGKIVKPVTLDEAHILIKLFPPTALYGIEWTLLHLIESVYSEIKSLEYRELINECNSTEFKKMLVQRLNNSQQKKITNEAG”, the “soluble on expression in E. coli” value is reported as “not soluble”.
In the case of “MAAVSIVFEAPDNYGGAPAVSKKPIDFDHLAQQTMGDKDLEIEVLQLFSRSARAALHEMAGADNKTVTATAHRLKGSAQAVGASAVSAAAAAVEEKGNDSALIAKLAAAIVEAENFILKLCR”, the “soluble on expression in E. coli” value is reported as “not soluble”.
In the case of “MGSDKIHHHHHHMLTGHHAPVRAYDAHASSNSSTGFRGRLRLSVATTERQCSMIIAHLSDLHIRETGKPFASGNVDCTARAAQAFERVANMTPRPDMMVVTGDLADSGQIGEYQLLKELTEGLPFPVHLALGNHDIRENFLAVFPEKKGPGGFVQFCVEHDKLRVIGLDTLVEGEGLGRLCSERLSYLRDCLQERPNTSTLILLHHPPFAFGGGIYDAVRLIDGARELGEIITANKQVVRLLCGHHHRAIDCLWNGTLASVAPSVVSSCHLQLGDVRVFKNINEPPAFKLHVLVPESGFVSHNVFVEDFGPAYENIPDPNYQALASMRKQTALAASR”, the “soluble on expression in E. coli” value is reported as “not soluble”.
With “SFHYQALPMRVSFEVGAVTKIGEELDRLGLSRALVLCTPEQKHLADLVMDHLGDRGAGIFDQARMHVPVETADRARDRARKLGADSCVVIGGGSSIGLGKAIALEHGLPIIAIPTTYAGSEMTPIWGLTRDGRKQTGRDAKVLPQSVIYDPQLTAT” the “soluble on expression in E. coli” value was “not soluble”.
In the case of “MRVLVRDLKAHVGQEVELLGFLHWRRDLGRIQFLLLRDRSGVVQVVTGGLKLPLPESALRVRGLVVENAKAPGGLEVQAKEVEVLSPALEPTPVEIPKEEWRANPDTLLEYRYVTLRGEKARAPLKVQAALVRGFRRYLDRQDFTEIFTPKVVRAGAEGGSGLFGVDYFEKRAYLAQSPQLYKQIMVGVFERVYEVAPVWRMEEHHTSRHLNEYLSLDVEMGFIADEEDLMRLEEALLAEMLEEALNTAGDEIRLLGATWPSFPQDIPRLTHAEAKRILKEELGYPVGQDLSEEAERLLGEYAKERWGSDWLFVTRYPRSVRPFYTYPEEDGTTRSFDLLFRGLEITSGGQRIHRYEELLESLKAKGMDPEAFHGYLEVFKYGMPPHGGFAIGAERLTQKLLGLPNVRYARAFPRDRHRLTP”, the “soluble on expression in E. coli” value is reported as “soluble”.
For “MTNPNIPDDLLAKIAKKMADKCWWYLGPMLKSGPRGRDIVYRPDVLKNANIFSMCDDPDDFYAAGHDPNDINSEGRYRPFFKWCLQAGNPTAIYHEGLRLVTHESDIQGAILHLERIAPRNAAATLACAILYICAGNAHMGGVYLRLFGSNHYALESEDARDI”, the “soluble on expression in E. coli” value was “soluble”.
With “QPDPPCGGRLNSKDAGYITSPGYPQDYPSHQNCEWIVYAPEPNQKIVLNFNPHFEIEKHDCKYDFIEIRDGDSESADLLGKHCGNIAPPTIISSGSMLYIKFTSDYARQGAGFSLRYEIFKTGSEDCSKNFTSPNGTIESPGFPEKYPHNLDCTFTILAKPKMEIILQFLIFDLEHDPLQVGEGDCKYDWLDIWDGIPHVGPLIGKYCGTKTPSELRSSTGILSLTFHTDMAVAKDGFSARYYLVHQEPLENFQCNVPLGMESGRIANEQISASSTYSDGRWTPQQSRLHGDDNGWTPNLDSNKEYLQVDLRFLTMLTAIATQGAISRETQNGYYVKSYKLEVSTNGEDWMVYRHGKNHKVFQANNDATEVVLNKLHAPLLTRFVRIRPQTWHSGIALRLELFGCRVTDAPCSNMLGMLSGLIADSQISASSTQEYLWSPSAARLVSSRSGWFPRIPQAQPGEEWLQVDLGTPKTVKGVIIQGARGGDSITAVEARAFVRKFKVSYSLNGKDWEYIQDPRTQQPKLFEGNMHYDTPDIRRFDPIPAQYVRVYPERWSPAGIGMRLEVLGCDWTHHHHHH” the “soluble on expression in E. coli” value was “soluble”.
With “MSLNAQTLLANVAELVKTKLKPLVDDIDRKGYYPEAFMRELGAIGAVGIEAEGGNGLGLATRIAVLREIGKECGATSFSAWCQAACAWYLHQTPNQAVKDKYLADILQGKVLAGTGMSNTVKHLAGIEKHNLQAECVEGGYTVNGALPWVSNIGEDHIWANTAQIGGGYVMFITGGQREGVSLQNCPEFCALEGTHTFSLNFKDVFIPDEDIIAAPEQFAGYIQSIKAGFILLQIGIGAGVIDGSLGIIRLVNVVNAEVNSYLDDGYDSLKARLDGAWAETERLAGLAWDNTPDNLATLKLREAAAVLALAAAQSAALHSGAKGYLMRSPAQRRVGEAMFVAIVTPAIKHLCKEIAAIEAAKEGHHHHHH” the “soluble on expression in E. coli” value was “not soluble”.
For “AAQPADIVLTQTPSSLPVSVGEKVTMTCKSSQTLLYSNNQKNYLAWYQQKPGQSPKLLISWAFTRKSGVPDRFTGSGSGTDFTLTIGSVKAEDLAVYYCQQYSNYPWTFGGGTRLEIKRGGGGSGGGGSGGGGSGGGGSEVQLQQSGPEVVKTGASVKISCKASGYSFTGYFINWVKKNSGKSPEWIGHISSSYATSTYNQKFKNKAAFTVDTSSSTAFMQLNSLTSEDSAVYYCVRSGNYEEYAMDYWGQGTSVTVSS”, the “soluble on expression in E. coli” value was “soluble”.
In the case of “AEIVEGRDYTVLSAPQPTEGDSEHIEVIEFFWYGCPHCSDLHPHLSRWLENKPADVAFRFVPAILRNNWVPGAKTFYAMESLGLTQTLHDKVYHAIHREKTDLSKEATLFDWIGKQGVDRDKFIGAYNSFTVQNQANRSAQMIRQYKLTGVPALVVDGRYLTSGKAGGTPQDTISVLNQLIEK”, the “soluble on expression in E. coli” value is reported as “not soluble”.
In the case of “MDHDTEVIVKDFNSILEELTFNSRPIITTLTKLAEENISCAQYFVDAIESRIEKCMPKQKLYAFYALDSICKNVGSPYTIYFSRNLFNLYKRTYLLVDNTTRTKLINMFKLWLNPNDTGLPLFEGSALEKIEQFLIKASAAALE”, the “soluble on expression in E. coli” value is reported as “soluble”.
With “MASKITQPDKYSGFLNNYSDLKETTSATGKPVLRWVDPSFDQSKYDSIVWNPITYYPVPKPSTQVGQKVLDKILNYTNTEMKEAIAQRKPLVTTAGPRSLIFRGAITGVDTSKEGLQFYEVVPVALVVAGTQMATGHRTMDTRLYFEGELIDAATNKPVIKVVRQGEGKDLNNESTPMAFENIKQVIDDMATDATMFDVNKKLEHHHHHH” the “soluble on expression in E. coli” value was “soluble”.
In the case of “MSGFKWSPDQKWISFLAVPTASWSADSNTLCLVRADGSRFEKVDQMLLNAQWFQWAPSKNILAYIEGSGRVALENKHLKVKELPALQQNIFTPKGYVDWDFVWKNDRVIIVSRAKEAGIETPPEKRPLPSLYEVDSTSNAQHQITKKTNKQGDYHPIFMKKSNQLIWIRSDRKKADVWLAHKDRKQEKKWIENIDVPAWYYEKWNWGNVISVKEELEHHHHHH”, the “soluble on expression in E. coli” value is reported as “not soluble”.
With “MVCGKKRVGEELRCKSCGSPFEIRTGFHYRENIEDNFPYIKNMISLGESETPIFHGDDFDLKLDYMLPTFSYKDRGSRILISHIADIRDSYGITRISEDSSGNAGASIAAYGSAAGLAVDIYVPETVAGRKFSQIQAYGANVIKVKGSREDVQSAAERSESFYASHVLRPEFRDGIRTLAYEIYRQYDRMPRNIYIPVSAGTLLLGLYSGLRHLMESGEIAEMPAIVAVQTEAVSPLCAKINGLNYDPDNKLSSIADALVSRKPVLLQKMYQVISEYGRCMTVSDDEIIEARNRLAKKGFLVEYSSATVYAAFRKKPQENSLLVLTGSGLKNDS” the “soluble on expression in E. coli” value was “not soluble”.
With “MYREFYGLTEKPFSKTPDPRYLFLSRGHREALARLQYAVEERELALLTGDIGCGKTTISRALMDAVGNDGCFCFIVNPRLSAVEFLRTVARSLGIAEPAAAKDELLRQLTEAVYRLEGEKRCPVIIIDEAQLIPDQEVFDEIRLLTNFQLDDRNLMSVILMGQPELRQILSEPAHEALRQRIAMHYHLQPLSLEETLEYVDFRVEVAGGPQGLFSPDAIRRIYELSGGVPRKINILATNALLVGFGKDSAWIDASLVEELRDEASLYLEHHHHHH” the “soluble on expression in E. coli” value was “not soluble”.
For “MKKILILLTLCAFAFGASECDRKIDRINKEISFSKAHNDTARTLSLELALKQVQNDCAKDPMFYDKKLEAKKLKEQEVEKIEKELDALKEQKDYMSKAEYKAKKEALKEQKEKIKKLEHHHHHH”, the “soluble on expression in E. coli” value was “not soluble”.
With “MNWNKRLLDTPIIGDITKKIVSAKASREAHNISDHFTQFLQPCVAVSQTLKEEAFKIRHNVYCEELAFEEVRDNGQETDEFDHQSMFSLIKHKPSGTFTSCVRLVTSSGPDELLPIEKYCMGSITNEELSPKRFNRNEIAEISRLAVKSDFRRRKADNYKGSGTGVISEITYSETELRCFPFIAIGLYMAAATMSMNTGIRHVYVMMEPRLARSMKFIGINFQQLGPPVDYHGLRAPYYINPEIFMKNLSPGFKSLFSIIEEDICSQLNQLDLA” the “soluble on expression in E. coli” value was “not soluble”.
